{"source": "paper PMC8155215", "about": "“The splicing factor XAB2 interacts with ERCC1-XPF and XPG for R-loop processing”", "biological_target": "T1, recombinant human XAB2 (Homo sapiens, UniProt Q9HCS7 1-855)", "T1 sequence": "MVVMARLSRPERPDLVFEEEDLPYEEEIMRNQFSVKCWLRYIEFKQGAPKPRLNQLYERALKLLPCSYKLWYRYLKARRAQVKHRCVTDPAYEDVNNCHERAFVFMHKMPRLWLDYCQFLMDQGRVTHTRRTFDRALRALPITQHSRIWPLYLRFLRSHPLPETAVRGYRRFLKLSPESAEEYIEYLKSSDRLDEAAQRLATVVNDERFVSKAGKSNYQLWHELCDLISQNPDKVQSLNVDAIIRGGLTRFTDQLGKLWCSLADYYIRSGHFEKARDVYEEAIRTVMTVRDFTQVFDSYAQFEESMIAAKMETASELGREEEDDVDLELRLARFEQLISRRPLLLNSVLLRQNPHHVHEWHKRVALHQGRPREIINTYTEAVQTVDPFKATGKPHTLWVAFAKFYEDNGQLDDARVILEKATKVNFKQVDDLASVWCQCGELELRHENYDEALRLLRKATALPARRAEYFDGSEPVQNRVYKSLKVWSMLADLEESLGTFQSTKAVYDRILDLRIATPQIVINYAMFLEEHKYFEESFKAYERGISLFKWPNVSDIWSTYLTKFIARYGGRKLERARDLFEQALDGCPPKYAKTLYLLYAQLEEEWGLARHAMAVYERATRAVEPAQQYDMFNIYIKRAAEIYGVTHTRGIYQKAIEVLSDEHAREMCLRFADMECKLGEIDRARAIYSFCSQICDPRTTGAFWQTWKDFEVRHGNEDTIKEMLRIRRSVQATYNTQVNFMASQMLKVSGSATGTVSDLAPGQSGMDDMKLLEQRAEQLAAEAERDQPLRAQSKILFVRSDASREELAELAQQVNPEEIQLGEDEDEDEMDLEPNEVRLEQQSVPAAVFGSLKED", "assay": "EMSA; 0.1-10 nmol protein, 100 pmol RNA; no consumption of RNA oligo; 10 mM Tris-HCl pH 8.0, 50 mM KCl, 10% glycerol, 0.5 mM EDTA, 0.5 mM DTT, 1 ug/ml BSA, 6 mM MgCl2, 30 min at 4 C, 10 ul, 100 pmol RNA; 4% native PAGE in 0.5x TBE pH 7.5", "settings": "protein: commercial; label: 5' biotin; single strand", "data": [{"binder": "AUUGGAACGAUACAGAGAAGAU (ssRNA)", "note": "[XAB2RBS]", "values": [{"measurement": "binding result", "result": "no binding"}]}]}
